Data from publication PMC9907207 (Nature Communications, 2023).

Key:
Test in all cases: BLI
Details in all cases: both partners purified
[1] = target: T1, SARS-CoV-2 RBD (residues 319-541), ancestral strain (SARS-CoV-2, UniProt P0DTC2)
T1 construct: source: Expi293, purified (Talon resin)

SARS-CoV-1 RBD = SARS-CoV-1 RBD (SARS-CoV (SARS-CoV-1), isolate not …, UniProt P59594)
bat RaTG12-CoV RBD = bat RaTG12-CoV RBD (Bat coronavirus RaTG13 (printed as …, UniProt A0ABF7PLN6))

Measured: binding result

B1: GAR03, human IgG1 monoclonal antibody (antibody, V domains shown)
VH: QVQLVQSGAEVKKPGASVKVSCKASGYTFSSYDINWVRQAPGQGLEWMGWMSPNSGNTGYAQKFQGRVTMTRSTSMSTAYMELSSLRSEDTAVYFCARMSSSLTNYLDYWGQGTLVTVSS
VL: SYVLTQPPSVAVAPGQTARIRCGENDIGSKNVHWYQQKSGQAPVLVVYDDSDRPSGIPERFSGSNSGNTATLTISRVEAGDEADYYCQVWDSTGDHPDVVFGGGTKLTVL
notes: source: ExpiCHO, purified (Protein G resin)
binds: [1] | SARS-CoV-1 RBD | bat RaTG12-CoV RBD
